B1: Flag-tagged mouse CXCR4 C-terminally fused via a TEV protease cleavage site to tTA [mouse] / Myc-tagged COMMD8 C-terminally fused to TEV protease [not stated (mouse cDNA cloned for the MSCV2.2 vectors)] (parent)
chain 1: MEPEEGTPLWRLQKLPPEQGAGLLHKIIDGFCGRAYPAHQDYHSVWNSAEWKHVLEDVTTFFKAVVGKNFSEEETLQQLNQLNSCHQEAVLKCLKSRRNEIKQALLGEIVDISCAQLQDFDWQLKLALSSDKIATLQMPLLNLHLDVKEDDKVKPYTVEMSKEELQSLISSLEAANKVVLQLK
chain 2: MEPISVSIYTSDNYSEEVGSGDYDSNKEPCFRDENVHFNRIFLPTIYFIIFLTGIVGNGLVILVMGYQKKLRSMTDKYRLHLSVADLLFVITLPFWAVDAMADWYFGKFLCKAVHIIYTVNLYSSVLILAFISLDRYLAIVHATNSQRPRKLLAEKAVYVGVWIPALLLTIPDFIFADVSQGDISQGDDRYICDRLYPDSLWMVVFQFQHIMVGLILPGIVILSCYCIIISKLSHSKGHQKRKALKTTVILILAFFACWLPYYVGISIDSFILLGVIKQGCDFESIVHKWISITEALAFFHCCLNPILYAFLGAKFKSSAQHALNSMSRGSSLKILSKGKRGGHSSVSTESESSSFHSS

Variants of: B1
Test: Tango assay
Settings: with Myc-tagged COMMD8 C-terminally fused to TEV protease [not stated (mouse cDNA cloned for the MSCV2.2 vectors)]; HTL cells; firefly luciferase normalized to Renilla luciferase, fold increase over unstimulated cells; read off a plot

**Q.** Which response (fold increase) does the source give for chain 2 MEPISVSIYTSDNYSEEVGSGDYDSNKEPCFRDENVHFNRIFLPTIYFIIFLTGIVGNGLVILVMGYQKKLRSMTDKYRLHLSVADLLFVITLPFWAVDAMADWYFGKFLCKAVHIIYTVNLYSSVLILAFISLDRYLAIVHATNSQRPRKLLAEKAVYVGVWIPALLLTIPDFIFADVSQGDISQGDDRYICDRLYPDSLWMVVFQFQHIMVGLILPGIVILSCYCIIISKLSHSKGHQKRKALKTTVILILAFFACWLPYYVGISIDSFILLGVIKQGCDFESIVHKWISITEALAFFHCCLNPILYAFLGAKFKSSAQHALNSMSRGSSLKILSKGKRGGHSSVSTESEAAAFHSS [chain 2 S353A S354A S355A] here?
**A.** Its response (fold increase) is 0.87.

Reference: PMC6605747
